One test addresses HLA-B*08:01. Briefly: IEDB peptide-MHC binding, purified MHC/competitive/radioactivity; filed as Kd, often an IC50 or EC50 that approximates it; ≥ and ≤ were set here for values at or beyond the usual limits of such assays.
The target in test [1] is HLA-A*01:01. Description: IEDB peptide-MHC binding, purified MHC/direct/fluorescence; filed as Kd, often an IC50 or EC50 that approximates it; ≥ and ≤ were set here for values at or beyond the usual limits of such assays.
Test [2] deals with HLA-A*02:01. The description is as above.
A further test deals with HLA-A*31:01. The description is as above.
The target of the next test is HLA-B*15:01. Described as above.
The target of the next test is HLA-B*27:05. Described as above. The conditions noted are these: source organism: SARS-CoV1.
The next test has as its target HLA-B*58:01. The test is described as above.
For another test, the target named is HLA-A*30:01. Description: IEDB peptide-MHC binding, purified MHC/competitive/radioactivity; filed as Kd, often an IC50 or EC50 that approximates it; ≥ and ≤ were set here for values at or beyond the usual limits of such assays.
For test [3], the target named is HLA-A*02:01. Description: IEDB peptide-MHC binding, purified MHC/competitive/fluorescence; ≥ and ≤ were set here for values at or beyond the usual limits of such assays.
The target in test [4] is HLA-A*01:01. Description: IEDB peptide-MHC binding, purified MHC/competitive/radioactivity; filed as Kd, often an IC50 or EC50 that approximates it; ≥ and ≤ were set here for values at or beyond the usual limits of such assays. The conditions noted are these: source organism: Dengue virus 3 Martinique/1243/1999.
The next test deals with HLA-A*26:01. The description is as above. As to conditions: source organism: Dengue virus 1 Brazil/97-11/1997.
The target in test [5] is HLA-A*11:01. Description: IEDB peptide-MHC binding, purified MHC/direct/fluorescence; filed as Kd, often an IC50 or EC50 that approximates it; ≥ and ≤ were set here for values at or beyond the usual limits of such assays.
Test [6] has as its target HLA-A*03:01. The description is as above.
The next test has as its target HLA-A*69:01. The test is described as above.
For another test, the target named is HLA-B*40:01. Described as above.
The target of test [7] is HLA-A*03:01. Description: IEDB peptide-MHC binding, purified MHC/competitive/radioactivity; filed as Kd, often an IC50 or EC50 that approximates it; ≥ and ≤ were set here for values at or beyond the usual limits of such assays. The conditions noted are these: source organism: Dengue virus 4 Philippines/H241/1956.
Test [8] addresses HLA-A*11:01. Described as above. As to conditions: source organism: Dengue virus 4 Philippines/H241/1956.
A further test concerns the target HLA-A*02:02. Described as above.
The next test deals with HLA-A*02:03. The description is as above.
For the next test, the target named is HLA-A*02:06. The description is as above.
Where [9] appears, read: source organism: Vaccinia virus WR.
Setting [10] is: source organism: Zaire ebolavirus.
Setting [11] is: source organism: Dengue virus 1 Brazil/97-11/1997.
The mark [12] stands for this setting: source organism: Salmonella enterica subsp. enterica serovar Typhimurium.
Setting [13] is: source organism: Francisella tularensis subsp. holarctica LVS.
[14] abbreviates: source organism: Mycobacterium tuberculosis variant bovis.
Setting [15] is: source organism: Burkholderia pseudomallei.
Setting [16] is: source organism: Dengue virus 4 Philippines/H241/1956.
The mark [17] stands for this setting: source organism: SARS coronavirus Tor2.
Where [18] appears, read: source organism: Yersinia enterocolitica.

A value given as a limit tells only on which side of the number the result lay.

Usually Kd stands for the concentration at which binding is half-saturated. Turning to SLKIMIQSM, the Kd with HLA-B*08:01 (setting [9]) stood at 0.00248 µM.

Consider RLYYDSMSY, for which the Kd with HLA-A*01:01 [1] (source organism: SARS-CoV1) was 7.95 µM; in the test with HLA-A*02:01 [2] (source organism: SARS-CoV1) it was at least 22.8 µM; in the test with HLA-A*31:01 (source organism: SARS-CoV1), 6.94 µM; in the test with HLA-B*15:01 (source organism: SARS-CoV1), 0.13 µM; with HLA-B*27:05, 4.81 µM; in the test with HLA-B*58:01 (source organism: SARS-CoV1), 0.778 µM. Take KVKFYKREL: in the test with HLA-A*30:01 (setting [9]), the Kd came to 0.0419 µM.

For LAKRFSRGLL, the Kd with HLA-B*08:01 (source organism: Dengue virus 3 Singapore/8120/1995) turned out to be 1.48 µM.

What is called IC50 is the concentration that gives 50% inhibition. The low end stands for greater potency, the high end for weaker potency. In the test with HLA-A*02:01 [3] (setting [10]), YKLFLESGA displayed an IC50 of at least 209 µM. On to RLKMDKLEL, for which, in the test with HLA-B*08:01 (source organism: Dengue virus 3 Martinique/1243/1999), the Kd was 0.556 µM. Turning to SFKKNGAIK, the Kd in the test with HLA-A*30:01 (setting [11]) came out at 0.357 µM. IRSEELSFT showed an IC50 in the test with HLA-A*02:01 [3] (setting [10]) of at least 2410 µM. Turning to FTEENQWDSA, the Kd with HLA-A*01:01 [4] stood at 0.197 µM. In turn, KCIEYVTLN displayed an IC50 with HLA-A*02:01 [3] (source organism: Vaccinia virus Copenhagen) of at least 125 µM. In the case of LSIVSLFPLC, the Kd with HLA-A*30:01 (setting [11]) was found to be 0.801 µM.

Take EMAEALKGM: in the test with HLA-A*26:01, the Kd came out at 8.32 µM. Take QLCDEITIL: the dissociation constant (Kd) in the test with HLA-A*02:01 [2] (setting [12]) was 0.745 µM; with HLA-B*15:01 (setting [12]), 1.2 µM.

As for IQQLPETYF, the Kd with HLA-A*02:01 [2] (source organism: SARS-CoV1) was 16.8 µM; with HLA-A*11:01 [5] (source organism: SARS-CoV1) it was at least 51 µM; with HLA-B*15:01 (source organism: SARS-CoV1), 0.188 µM; with HLA-B*58:01 (source organism: SARS-CoV1), at least 23.4 µM. On to GVYTGSIGY, for which the results for the Kd with HLA-A*03:01 [6] (setting [13]) and with HLA-A*11:01 [5] (setting [13]) were 0.0026 µM and 0.0016 µM, respectively.

The sequence GLFPFHFTL gave a Kd in the test with HLA-A*02:01 [2] (source organism: Mycobacterium tuberculosis) of 0.0004 µM. For ALSSLAKHG, in the test with HLA-A*02:01 [3] (setting [10]), the IC50 was at least 91.8 µM. Turning to ALPGPDGVV, the Kd in the test with HLA-A*02:01 [2] (setting [14]) is 0.553 µM; with HLA-A*69:01 (setting [14]) it was at least 20 µM. In the case of MSLRSTIIK, the Kd with HLA-A*30:01 (setting [9]) was determined as 0.0372 µM.

In the test with HLA-B*15:01 (source organism: Mycobacterium tuberculosis F11), AISAQVAAY registered a Kd of 1.27 µM. In the case of AQAIGRVER, the results for the Kd in the test with HLA-A*03:01 [6] (setting [15]) and in the test with HLA-A*31:01 (setting [15]) were at least 20 µM and 0.0373 µM, respectively. In the test with HLA-B*40:01 (source organism: Mammarenavirus lassaense), EEITPHCAL showed a Kd of 0.0266 µM.

In the case of KQPNRPLFI, the Kd in the test with HLA-A*02:01 [2] (setting [12]) is 6 µM; with HLA-A*69:01 (setting [12]), at least 20 µM. For VMKRYSAPSE, the Kd in the test with HLA-A*30:01 (source organism: Dengue virus 4 Dominica/814669/1981) turned out to be 6.33 µM. For the sequence VKVLRPTPKG, the Kd with HLA-A*30:01 (setting [16]) was 9.23 µM. Regarding MTLMKGASK, the Kd with HLA-A*03:01 [7] came to 0.018 µM; with HLA-A*11:01 [8], 0.143 µM; with HLA-A*30:01 (setting [16]) it was 1.52 µM. In the case of REKIDGVKL, the Kd in the test with HLA-B*40:01 (source organism: Influenza A virus (A/Hong Kong/1131/1998(H1N1))) turned out to be 0.0469 µM.

In the case of KLWAQCVQL, the equilibrium dissociation constant (Kd) with HLA-A*02:01 [2] (source organism: SARS-CoV1) is 0.109 µM; in the test with HLA-A*03:01 [6] (source organism: SARS-CoV1), 2.86 µM; with HLA-A*31:01 (source organism: SARS-CoV1) it was 0.303 µM; in the test with HLA-A*02:02 (setting [17]), 0.0127 µM; in the test with HLA-A*02:03 (setting [17]), 0.194 µM; with HLA-A*02:06 (setting [17]) it was 0.00947 µM. Take IMDASSFTL: the Kd in the test with HLA-A*01:01 [1] (setting [18]) is 5.7 µM; with HLA-A*02:01 [2] (setting [18]), 0.0308 µM; in the test with HLA-A*69:01 (setting [18]) it was 0.997 µM; with HLA-B*15:01 (setting [18]) it was 0.139 µM; in the test with HLA-B*40:01 (setting [18]), 0.432 µM; with HLA-B*58:01 (setting [18]) it was 0.0495 µM.

In the test with HLA-A*02:01 [3] (setting [9]), MLIGIEILN displayed an IC50 of 0.554 µM.

Sequence PLGVIHNST showed an IC50 with HLA-A*02:01 [3] (setting [10]) of at least 120 µM.

For VLALYSPPLI, the Kd with HLA-A*02:02 (setting [9]) was 0.0157 µM; with HLA-A*02:03 (setting [9]), 0.101 µM; in the test with HLA-A*02:06 (setting [9]), 0.868 µM. With KTNTGTIGA, in the test with HLA-A*30:01 (source organism: Dengue virus 2 Jamaica/1409/1983), the Kd was found to be 0.00294 µM.

Values taken from the Immune Epitope Database (IEDB).
